The values below are quoted from earlier work in patent US11046988B2, “Process for the modification of a glycoprotein using a β-(1,4)-N-acetylgalactosaminyl transferase or a mutant thereof” (Synaffix B.V., priority 2014, dated 2021).

For one data set, the target named is β-(1,4)-GalNAcT (Caenorhabditis elegans, UniProt Q9GUM2). As to conditions: sugar nucleotide as donor substrate; cited from earlier work.
For data set [1] the following is noted: cited from earlier work.

Sequence of β-(1,4)-GalNAcT (Q9GUM2 whole entry): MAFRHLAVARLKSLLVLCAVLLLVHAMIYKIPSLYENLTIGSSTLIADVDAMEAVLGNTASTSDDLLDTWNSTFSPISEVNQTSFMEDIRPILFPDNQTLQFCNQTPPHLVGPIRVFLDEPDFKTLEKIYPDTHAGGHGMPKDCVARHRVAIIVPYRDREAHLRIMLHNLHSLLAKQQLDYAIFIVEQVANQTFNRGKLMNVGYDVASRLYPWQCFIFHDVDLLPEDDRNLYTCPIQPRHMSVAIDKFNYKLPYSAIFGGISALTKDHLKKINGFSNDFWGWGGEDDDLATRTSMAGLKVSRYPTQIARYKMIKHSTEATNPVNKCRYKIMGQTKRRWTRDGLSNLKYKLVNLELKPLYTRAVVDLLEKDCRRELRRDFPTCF

For `CC(=O)N[C@H]1[C@@H](OP(=O)(O)OP(=O)(O)OC[C@H]2O[C@@H](n3ccc(=O)[nH]c3=O)[C@H](O)[C@@H]2O)O[C@H](CO)[C@@H](O)[C@@H]1O` [UDP-GlcNAc], the “transferase activity remaining (compared with UDP-GalNAc)” value on β-(1,4)-GalNAcT was 0.7%.

B1: β4GalT(Y289L,M344H): double mutant β-1,4-galactosyltransferase 1 described by Ramakrishnan et al. (protein, UniProt P08037 1-402, looked up, variant Y289L M344H)
chain: MKFREPLLGGSAAMPGASLQRACRLLVAVCALHLGVTLVYYLAGRDLRRLPQLVGVHPPLQGSSHGAAAIGQPSGELRLRGVAPPPPLQNSSKPRSRAPSNLDAYSHPGPGPGPGSNLTSAPVPSTTTRSLTACPEESPLLVGPMLIEFNIPVDLKLVEQQNPKVKLGGRYTPMDCISPHKVAIIIPFRNRQEHLKYWLYYLHPILQRQQLDYGIYVINQAGESMFNRAKLLNVGFKEALKDYDYNCFVFSDVDLIPMNDHNTYRCFSQPRHISVAMDKFGFSLPYVQLFGGVSALSKQQFLSINGFPNNYWGWGGEDDDIYNRLAFRGMSVSRPNAVIGKCRHIRHSRDKKNEPNPQRFDRIAHTKETMLSDGLNSLTYMVLEVQRYPLYTKITVDIGTPS
Take B1: the “activity in the presence of Mg2+” value in data set [1] (Mg2+) is on record as 25-30%. Moreover, the “loss of Mn2+-dependent activity” value in data set [1] (Mn2+) is 98%.
